Target: EBV glycoprotein gp350 (Epstein-Barr virus (strain B95-8) …, UniProt P03200-1)
Assay: flow cytometry on cells

Sequence of EBV glycoprotein gp350 (P03200 whole entry): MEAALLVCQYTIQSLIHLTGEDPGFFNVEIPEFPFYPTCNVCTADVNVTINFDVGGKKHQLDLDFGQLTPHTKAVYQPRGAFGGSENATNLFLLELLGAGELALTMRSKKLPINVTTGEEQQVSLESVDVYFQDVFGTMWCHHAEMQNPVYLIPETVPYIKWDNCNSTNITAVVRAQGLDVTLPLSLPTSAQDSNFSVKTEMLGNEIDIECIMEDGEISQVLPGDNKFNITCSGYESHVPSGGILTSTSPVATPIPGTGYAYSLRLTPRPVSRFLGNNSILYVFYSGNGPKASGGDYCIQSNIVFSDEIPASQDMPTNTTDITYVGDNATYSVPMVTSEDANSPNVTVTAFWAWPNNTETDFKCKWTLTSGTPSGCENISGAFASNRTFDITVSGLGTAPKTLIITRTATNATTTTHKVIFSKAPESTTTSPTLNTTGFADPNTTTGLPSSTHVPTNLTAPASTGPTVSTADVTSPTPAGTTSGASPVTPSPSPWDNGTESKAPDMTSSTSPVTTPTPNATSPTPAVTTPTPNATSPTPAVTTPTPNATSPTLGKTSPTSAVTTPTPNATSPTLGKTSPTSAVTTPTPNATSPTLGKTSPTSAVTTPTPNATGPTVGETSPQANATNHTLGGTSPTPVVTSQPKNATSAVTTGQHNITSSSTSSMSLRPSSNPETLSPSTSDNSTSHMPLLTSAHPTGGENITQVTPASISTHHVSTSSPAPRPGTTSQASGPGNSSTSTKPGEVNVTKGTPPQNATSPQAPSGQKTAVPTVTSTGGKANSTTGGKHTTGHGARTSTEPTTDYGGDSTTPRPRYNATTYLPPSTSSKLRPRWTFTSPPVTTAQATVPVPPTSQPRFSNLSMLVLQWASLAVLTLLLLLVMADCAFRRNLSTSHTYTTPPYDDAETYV

B1: 72A1, original hybridoma antibody (antibody, V domains shown)
VH: EVQLQQSGPELVKPGTSMKISCKASGSSFTDYTMNWMKQSHGKNLEWIGLINPYNGGTRYNQKFKGKATLTLDKSSSTAYMEVLSLTSEDSAVYYCAGGLRRVNWFAYWGQGTLVSVSA
VL: QAVLTQESALTTSPGETVTLTCRSSTGAVTTSNYANWVQEKPDHLFTGLIGGTNNRVPGVPARFSGSLIGDKAALTITGAQTEDEAIYFCVLWHSNHWVFGGGTKLTVL
binding result: binds
